In US20230183713A1, “SITE-SPECIFIC RECOMBINASES FOR EFFICIENT AND SPECIFIC GENOME EDITING” (TECHNISCHE UNIVERSITÄt DRESDEN, published 2023):

T1: Cre recombinase monomer with Q311R mutation
T1 chain: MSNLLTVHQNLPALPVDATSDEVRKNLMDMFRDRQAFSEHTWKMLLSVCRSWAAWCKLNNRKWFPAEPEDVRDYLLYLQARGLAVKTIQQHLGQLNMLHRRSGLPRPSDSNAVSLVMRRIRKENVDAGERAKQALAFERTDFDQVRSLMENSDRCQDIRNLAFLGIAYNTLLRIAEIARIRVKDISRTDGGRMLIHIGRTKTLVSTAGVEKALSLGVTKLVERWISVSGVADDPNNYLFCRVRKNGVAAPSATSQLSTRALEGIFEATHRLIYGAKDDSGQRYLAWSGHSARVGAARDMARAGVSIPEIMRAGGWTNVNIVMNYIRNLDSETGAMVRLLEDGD

T2: Cre recombinase monomer with Y324T mutation
T2 chain: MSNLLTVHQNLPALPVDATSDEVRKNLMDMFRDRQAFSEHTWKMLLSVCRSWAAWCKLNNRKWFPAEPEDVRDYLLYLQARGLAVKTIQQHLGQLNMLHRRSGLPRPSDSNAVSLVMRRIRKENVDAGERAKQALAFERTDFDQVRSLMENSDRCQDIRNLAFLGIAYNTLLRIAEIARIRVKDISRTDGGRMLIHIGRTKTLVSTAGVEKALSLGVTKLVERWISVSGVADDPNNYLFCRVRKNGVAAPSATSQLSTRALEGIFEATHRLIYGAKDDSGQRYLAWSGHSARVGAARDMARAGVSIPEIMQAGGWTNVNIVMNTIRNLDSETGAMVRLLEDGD

T3: Cre recombinase monomer with K201R mutation
T3 chain: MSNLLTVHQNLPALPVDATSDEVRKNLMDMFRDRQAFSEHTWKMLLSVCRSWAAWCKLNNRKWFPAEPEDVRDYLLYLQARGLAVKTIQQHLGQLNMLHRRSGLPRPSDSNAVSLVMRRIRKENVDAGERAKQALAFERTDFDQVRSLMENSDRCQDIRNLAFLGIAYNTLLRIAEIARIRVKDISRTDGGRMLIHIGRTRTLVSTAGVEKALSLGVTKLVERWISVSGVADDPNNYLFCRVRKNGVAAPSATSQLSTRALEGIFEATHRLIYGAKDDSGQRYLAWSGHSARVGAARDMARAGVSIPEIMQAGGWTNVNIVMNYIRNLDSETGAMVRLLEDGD

T4: Cre recombinase monomer with W315M mutation
T4 chain: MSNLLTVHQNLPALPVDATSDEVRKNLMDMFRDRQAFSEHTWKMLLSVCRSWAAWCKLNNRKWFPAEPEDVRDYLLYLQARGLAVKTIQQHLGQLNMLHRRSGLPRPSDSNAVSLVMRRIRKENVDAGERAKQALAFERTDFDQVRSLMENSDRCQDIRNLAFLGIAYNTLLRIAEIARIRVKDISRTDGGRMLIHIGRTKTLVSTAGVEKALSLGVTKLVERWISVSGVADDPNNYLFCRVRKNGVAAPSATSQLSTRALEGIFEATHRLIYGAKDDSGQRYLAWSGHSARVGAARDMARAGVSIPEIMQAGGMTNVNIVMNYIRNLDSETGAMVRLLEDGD

T5: Cre recombinase monomer with Y324F mutation
T5 chain: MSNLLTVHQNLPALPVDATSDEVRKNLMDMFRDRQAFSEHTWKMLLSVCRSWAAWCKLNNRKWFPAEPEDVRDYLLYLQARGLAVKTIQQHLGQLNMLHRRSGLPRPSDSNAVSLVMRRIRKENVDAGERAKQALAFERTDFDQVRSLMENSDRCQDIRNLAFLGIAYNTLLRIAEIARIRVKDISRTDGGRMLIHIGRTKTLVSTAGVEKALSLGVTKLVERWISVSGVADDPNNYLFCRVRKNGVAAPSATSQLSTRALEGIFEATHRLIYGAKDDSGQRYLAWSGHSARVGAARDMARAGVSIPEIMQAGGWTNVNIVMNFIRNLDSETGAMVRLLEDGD

T6: Cre recombinase monomer with W315I mutation
T6 chain: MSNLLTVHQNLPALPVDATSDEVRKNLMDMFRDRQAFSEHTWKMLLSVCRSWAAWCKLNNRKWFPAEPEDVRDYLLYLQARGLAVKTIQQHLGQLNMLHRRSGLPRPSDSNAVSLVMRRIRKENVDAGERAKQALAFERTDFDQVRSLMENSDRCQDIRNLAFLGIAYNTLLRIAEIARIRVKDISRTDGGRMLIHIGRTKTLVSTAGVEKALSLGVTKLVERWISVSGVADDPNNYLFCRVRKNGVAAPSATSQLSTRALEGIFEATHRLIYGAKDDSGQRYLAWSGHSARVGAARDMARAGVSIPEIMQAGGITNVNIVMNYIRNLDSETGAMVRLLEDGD

T7: Cre recombinase monomer with Y324V mutation
T7 chain: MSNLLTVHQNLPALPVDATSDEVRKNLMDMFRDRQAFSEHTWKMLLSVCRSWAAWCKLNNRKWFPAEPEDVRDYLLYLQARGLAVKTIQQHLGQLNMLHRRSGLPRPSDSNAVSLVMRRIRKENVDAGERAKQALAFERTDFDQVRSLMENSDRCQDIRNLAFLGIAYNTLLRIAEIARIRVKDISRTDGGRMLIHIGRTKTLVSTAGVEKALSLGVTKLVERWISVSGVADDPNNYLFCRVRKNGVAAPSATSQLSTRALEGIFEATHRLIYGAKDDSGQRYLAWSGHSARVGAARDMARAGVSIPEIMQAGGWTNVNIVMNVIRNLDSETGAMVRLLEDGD


Assays:
[1] = molecular target: T1, Cre recombinase monomer with Q311R …
[2] = molecular target: T2, Cre recombinase monomer with Y324T …
[3] = molecular target: T3, Cre recombinase monomer with K201R …
[4] = molecular target: T4, Cre recombinase monomer with W315M …
[5] = molecular target: T5, Cre recombinase monomer with Y324F …
[6] = molecular target: T6, Cre recombinase monomer with W315I …
[7] = molecular target: T7, Cre recombinase monomer with Y324V …

Protein | Median dimer activity (recombination on loxP) [1] | Median dimer activity (recombination on loxP) [2] | Median dimer activity (recombination on loxP) [4] | other results
Cre recombinase monomer with K201L mutation (protein) MSNLLTVHQNLPALPVDATSDEVRKNLMDMFRDRQAFSEHTWKMLLSVCRSWAAWCKLNNRKWFPAEPEDVRDYLLYLQARGLAVKTIQQHLGQLNMLHRRSGLPRPSDSNAVSLVMRRIRKENVDAGERAKQALAFERTDFDQVRSLMENSDRCQDIRNLAFLGIAYNTLLRIAEIARIRVKDISRTDGGRMLIHIGRTLTLVSTAGVEKALSLGVTKLVERWISVSGVADDPNNYLFCRVRKNGVAAPSATSQLSTRALEGIFEATHRLIYGAKDDSGQRYLAWSGHSARVGAARDMARAGVSIPEIMQAGGWTNVNIVMNYIRNLDSETGAMVRLLEDGD | 92% | 25% | – | –
Cre recombinase monomer with K201M mutation (protein) MSNLLTVHQNLPALPVDATSDEVRKNLMDMFRDRQAFSEHTWKMLLSVCRSWAAWCKLNNRKWFPAEPEDVRDYLLYLQARGLAVKTIQQHLGQLNMLHRRSGLPRPSDSNAVSLVMRRIRKENVDAGERAKQALAFERTDFDQVRSLMENSDRCQDIRNLAFLGIAYNTLLRIAEIARIRVKDISRTDGGRMLIHIGRTMTLVSTAGVEKALSLGVTKLVERWISVSGVADDPNNYLFCRVRKNGVAAPSATSQLSTRALEGIFEATHRLIYGAKDDSGQRYLAWSGHSARVGAARDMARAGVSIPEIMQAGGWTNVNIVMNYIRNLDSETGAMVRLLEDGD | 93% | – | – | Median dimer activity (recombination on loxP) [3]: 76%
Cre recombinase monomer with K201V mutation (protein) MSNLLTVHQNLPALPVDATSDEVRKNLMDMFRDRQAFSEHTWKMLLSVCRSWAAWCKLNNRKWFPAEPEDVRDYLLYLQARGLAVKTIQQHLGQLNMLHRRSGLPRPSDSNAVSLVMRRIRKENVDAGERAKQALAFERTDFDQVRSLMENSDRCQDIRNLAFLGIAYNTLLRIAEIARIRVKDISRTDGGRMLIHIGRTVTLVSTAGVEKALSLGVTKLVERWISVSGVADDPNNYLFCRVRKNGVAAPSATSQLSTRALEGIFEATHRLIYGAKDDSGQRYLAWSGHSARVGAARDMARAGVSIPEIMQAGGWTNVNIVMNYIRNLDSETGAMVRLLEDGD | 84% | – | 64% | Median dimer activity (recombination on loxP) [5]: 48%
Cre recombinase monomer with K201W mutation (protein) MSNLLTVHQNLPALPVDATSDEVRKNLMDMFRDRQAFSEHTWKMLLSVCRSWAAWCKLNNRKWFPAEPEDVRDYLLYLQARGLAVKTIQQHLGQLNMLHRRSGLPRPSDSNAVSLVMRRIRKENVDAGERAKQALAFERTDFDQVRSLMENSDRCQDIRNLAFLGIAYNTLLRIAEIARIRVKDISRTDGGRMLIHIGRTWTLVSTAGVEKALSLGVTKLVERWISVSGVADDPNNYLFCRVRKNGVAAPSATSQLSTRALEGIFEATHRLIYGAKDDSGQRYLAWSGHSARVGAARDMARAGVSIPEIMQAGGWTNVNIVMNYIRNLDSETGAMVRLLEDGD | 95% | 68% | 49% | –
Cre recombinase monomer with H289K mutation (protein) MSNLLTVHQNLPALPVDATSDEVRKNLMDMFRDRQAFSEHTWKMLLSVCRSWAAWCKLNNRKWFPAEPEDVRDYLLYLQARGLAVKTIQQHLGQLNMLHRRSGLPRPSDSNAVSLVMRRIRKENVDAGERAKQALAFERTDFDQVRSLMENSDRCQDIRNLAFLGIAYNTLLRIAEIARIRVKDISRTDGGRMLIHIGRTKTLVSTAGVEKALSLGVTKLVERWISVSGVADDPNNYLFCRVRKNGVAAPSATSQLSTRALEGIFEATHRLIYGAKDDSGQRYLAWSGKSARVGAARDMARAGVSIPEIMQAGGWTNVNIVMNYIRNLDSETGAMVRLLEDGD | 95% | – | 74% | –
Cre recombinase monomer with R292M mutation (protein) MSNLLTVHQNLPALPVDATSDEVRKNLMDMFRDRQAFSEHTWKMLLSVCRSWAAWCKLNNRKWFPAEPEDVRDYLLYLQARGLAVKTIQQHLGQLNMLHRRSGLPRPSDSNAVSLVMRRIRKENVDAGERAKQALAFERTDFDQVRSLMENSDRCQDIRNLAFLGIAYNTLLRIAEIARIRVKDISRTDGGRMLIHIGRTKTLVSTAGVEKALSLGVTKLVERWISVSGVADDPNNYLFCRVRKNGVAAPSATSQLSTRALEGIFEATHRLIYGAKDDSGQRYLAWSGHSAMVGAARDMARAGVSIPEIMQAGGWTNVNIVMNYIRNLDSETGAMVRLLEDGD | 96% | – | – | Median dimer activity (recombination on loxP) [6]: 42%
Cre recombinase monomer with W315Q mutation (protein) MSNLLTVHQNLPALPVDATSDEVRKNLMDMFRDRQAFSEHTWKMLLSVCRSWAAWCKLNNRKWFPAEPEDVRDYLLYLQARGLAVKTIQQHLGQLNMLHRRSGLPRPSDSNAVSLVMRRIRKENVDAGERAKQALAFERTDFDQVRSLMENSDRCQDIRNLAFLGIAYNTLLRIAEIARIRVKDISRTDGGRMLIHIGRTKTLVSTAGVEKALSLGVTKLVERWISVSGVADDPNNYLFCRVRKNGVAAPSATSQLSTRALEGIFEATHRLIYGAKDDSGQRYLAWSGHSARVGAARDMARAGVSIPEIMQAGGQTNVNIVMNYIRNLDSETGAMVRLLEDGD | – | – | – | Median dimer activity (recombination on loxP) [7]: 97%
Cre recombinase monomer with R173P mutation (protein) MSNLLTVHQNLPALPVDATSDEVRKNLMDMFRDRQAFSEHTWKMLLSVCRSWAAWCKLNNRKWFPAEPEDVRDYLLYLQARGLAVKTIQQHLGQLNMLHRRSGLPRPSDSNAVSLVMRRIRKENVDAGERAKQALAFERTDFDQVRSLMENSDRCQDIRNLAFLGIAYNTLLPIAEIARIRVKDISRTDGGRMLIHIGRTKTLVSTAGVEKALSLGVTKLVERWISVSGVADDPNNYLFCRVRKNGVAAPSATSQLSTRALEGIFEATHRLIYGAKDDSGQRYLAWSGHSARVGAARDMARAGVSIPEIMQAGGWTNVNIVMNYIRNLDSETGAMVRLLEDGD | 94% | 47% | – | –
Cre recombinase monomer with E176M mutation (protein) MSNLLTVHQNLPALPVDATSDEVRKNLMDMFRDRQAFSEHTWKMLLSVCRSWAAWCKLNNRKWFPAEPEDVRDYLLYLQARGLAVKTIQQHLGQLNMLHRRSGLPRPSDSNAVSLVMRRIRKENVDAGERAKQALAFERTDFDQVRSLMENSDRCQDIRNLAFLGIAYNTLLRIAMIARIRVKDISRTDGGRMLIHIGRTKTLVSTAGVEKALSLGVTKLVERWISVSGVADDPNNYLFCRVRKNGVAAPSATSQLSTRALEGIFEATHRLIYGAKDDSGQRYLAWSGHSARVGAARDMARAGVSIPEIMQAGGWTNVNIVMNYIRNLDSETGAMVRLLEDGD | 82% | – | – | Median dimer activity (recombination on loxP) [3]: 35%
